First the molecules themselves.
B7: human His-GIV-CT (1660–1870) (domain or fragment, UniProt Q3V6T2-3 1660-1870, looked up)
chain: SETLESRHHKIKTGSPGSEVVTLQQFLEESNKLTSVQIKSSSQENLLDEVMKSLSVSSDFLGKDKPVSCGLARSVSGKTPGDFYDRRTTKPEFLRPGPRKTEDTYFISSAGKPTPGTQGKIKLVKESSLSRQSKDSNPYATLPRASSVISTAEGTTRRTSIHDFLTKDSRLPISVDSPPAAADSNTTAASNVDKVQESRNSKSRSREQQSS
notes: also called His-tagged GIV 1660–1870; source: E. coli BL21(DE3), purified (HisPur Cobalt resin, dialysed against PBS)

In test [1] the target is T1, rat GST-Gαi3 (Rattus norvegicus, UniProt P08753).
T1 construct: gene Gnai3
T1 sequence (Q3V6T2 1660-1870 partner, one chain of several): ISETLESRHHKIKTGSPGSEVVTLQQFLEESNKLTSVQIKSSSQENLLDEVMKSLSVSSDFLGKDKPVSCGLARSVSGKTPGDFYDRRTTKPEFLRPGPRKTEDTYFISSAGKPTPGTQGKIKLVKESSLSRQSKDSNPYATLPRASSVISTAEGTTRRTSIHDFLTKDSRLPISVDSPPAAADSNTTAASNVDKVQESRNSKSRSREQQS
Briefly: AlphaScreen protein-protein binding inhibition. Conditions: displacement of His-GIV-CT 1660-1870 (75 nM each protein); GDP 30 µM, 5 mM MgCl2, pH 7.4, room temperature.

The target of test [2] is T2, rat His-Gαi3 (Rattus norvegicus, UniProt P08753).
T2 construct: gene Gnai3
Briefly: fluorescence polarization competition. The class given is binding. In general terms: In fluorescence polarisation assays a small probe gives low polarisation when free and higher when bound to something large.

In the next test the target is T3, human Gαi3 (Homo sapiens, UniProt P08754).
T3 construct: gene GNAI3
T3 sequence (P08754 whole entry): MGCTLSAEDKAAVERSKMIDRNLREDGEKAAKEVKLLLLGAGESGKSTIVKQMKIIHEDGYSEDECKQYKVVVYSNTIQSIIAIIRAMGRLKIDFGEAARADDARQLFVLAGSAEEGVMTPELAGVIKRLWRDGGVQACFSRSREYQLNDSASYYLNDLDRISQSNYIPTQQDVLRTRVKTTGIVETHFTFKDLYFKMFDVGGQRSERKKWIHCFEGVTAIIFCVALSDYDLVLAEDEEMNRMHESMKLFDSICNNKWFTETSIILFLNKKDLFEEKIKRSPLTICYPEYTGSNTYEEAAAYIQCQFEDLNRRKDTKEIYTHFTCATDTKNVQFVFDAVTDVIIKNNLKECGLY
Put plainly: 1H-15N TROSY NMR titration, chemical shift perturbation. The class given is binding. The settings on record: GDP-bound, pH 7.0, 30 °C, 10 mM MgCl2; site SwII/α3/W258 region.

In test [3] the target is T1, rat GST-Gαi3. Briefly: AlphaScreen protein-protein binding inhibition. The settings on record: displacement of His-GIV-CT 1660-1870 (75 nM each protein); GDP 30 µM, 5 mM MgCl2, pH 7.4, room temperature. This is another data set of the same source. (Alpha assays give light when donor and acceptor beads are brought close together.)
Test [4] deals with T4, rat His-Gαi3 (rat, UniProt P08753 1-354).
T4 construct: GDP-loaded in the buffers; Pull-down and FP methods name the rat protein; also called purified His-Gαi3; source: E. coli BL21(DE3), purified (HisPur Cobalt resin, buffer exchange on HiTrap Desalting)
Put plainly: fluorescence polarisation; fluorescently-labeled GIV peptide 25 nM, rat His-Gαi3 titrated 0.125–10 µM, room temperature; 50 mM Tris-HCl pH 7.4, 100 mM NaCl, 0.4% NP-40, 10 mM MgCl2, 5 mM EDTA, 2 mM DTT, 30 µM GDP; one-site binding model. Conditions: both partners purified.

Test [5] deals with T5, rat His-Gαi3 (rat, UniProt P08753 1-354).
T5 chain: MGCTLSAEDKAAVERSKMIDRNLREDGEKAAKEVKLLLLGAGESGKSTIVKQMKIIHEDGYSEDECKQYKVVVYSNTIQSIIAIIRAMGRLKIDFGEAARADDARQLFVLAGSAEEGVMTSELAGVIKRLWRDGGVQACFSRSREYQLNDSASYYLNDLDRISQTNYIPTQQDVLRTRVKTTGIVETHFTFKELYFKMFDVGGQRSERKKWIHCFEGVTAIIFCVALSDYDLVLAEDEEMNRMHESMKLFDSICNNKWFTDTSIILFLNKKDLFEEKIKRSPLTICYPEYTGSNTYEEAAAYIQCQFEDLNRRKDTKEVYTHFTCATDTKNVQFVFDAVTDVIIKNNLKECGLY
Put plainly: FP.

Test [6] has as its target T4, rat His-Gαi3. Put plainly: pull-down; 10 µg GST or GST-GIV (~1.25 µM) immobilised on glutathione agarose beads; rat His-Gαi3 0.1–5 µM, 4 h at 4 °C; 50 mM Tris-HCl pH 7.4, 100 mM NaCl, 0.4% NP-40, 10 mM MgCl2, 5 mM EDTA, 2 mM DTT, 30 µM GDP; SDS-PAGE, Coomassie blue. The settings on record: both partners purified.
Test [7] deals with T6, rat GST-Gαi3 (rat, UniProt P08753 1-354).
T6 construct: source: E. coli BL21(DE3), purified (Glutathione Agarose, buffer exchange on HiTrap Desalting)
Briefly: AlphaScreen or HTRF; His-GIV-CT on nickel-chelate donor beads, GST-Gαi3 on glutathione acceptor beads; 25–100 nM each (75 nM chosen), 10 and 5 µg/ml beads; 50 mM Tris-HCl pH 7.4, 100 mM NaCl, 0.4% NP-40, 5 mM MgCl2, 2 mM DTT, 30 µM GDP; room temperature, 2.5 h. Conditions: both partners purified.

Test [8] addresses T4, rat His-Gαi3. Briefly: fluorescence polarisation; competition: His-Gαi3 1 µM with fluorescently-labeled GIV 1671–1701 25 nM and increasing unlabeled GIV peptide or His-GIV-CT (0.5–20 µM); buffer with 30 µM GDP. The settings on record: both partners purified.
The target of test [9] is B7. Put plainly: AlphaScreen or HTRF; competition: 75 nM His-GIV-CT and 75 nM GST-Gαi3 on beads with increasing untagged Gαi3 in solution; buffer with 30 µM GDP; one-site sigmoidal inhibition curve. Conditions: both partners purified.

Where two headings read alike, the source gives them in different places. No end group written: not given here. 5,6‑carboxyfluorescein = 5,6-carboxyfluorescein

As usually defined, the IC50 is the concentration that inhibits the measured activity by half. `O=C(O)C1=CC(=C(c2ccc(O)c(C(=O)O)c2)c2ccc(O)c(C(=O)O)c2)C=CC1=O` [ATA]: the “% inhibition at 10 μM” value on rat GST-Gαi3 [1] was “ATA and NF023 efficiently inhibited Gαi3-GIV binding as determined by AlphaScreen”. Also, on rat His-Gαi3 [2] (read-out: IC50), the IC50 was roughly 5 µM. Consider `O=C(Nc1cccc(C(=O)Nc2ccc(S(=O)(=O)O)c3cc(S(=O)(=O)O)cc(S(=O)(=O)O)c23)c1)Nc1cccc(C(=O)Nc2ccc(S(=O)(=O)O)c3cc(S(=O)(=O)O)cc(S(=O)(=O)O)c23)c1` [NF023], for which the “% inhibition at 10 μM” value at rat GST-Gαi3 [1] is “ATA and NF023 efficiently inhibited Gαi3-GIV binding as determined by AlphaScreen”. Further, the “1H-15N TROSY NMR titration, chemical shift perturbation” value on human Gαi3 was “revealed significant Chemical Shift Perturbations (CSP) in only a fraction”. Besides, the IC50 at rat His-Gαi3 [2] (read-out: IC50) was roughly 5 µM. Regarding `O=C(Nc1cc(C(=O)Nc2ccc(S(=O)(=O)O)cc2S(=O)(=O)O)cc(C(=O)Nc2ccc(S(=O)(=O)O)cc2S(=O)(=O)O)c1)Nc1cc(C(=O)Nc2ccc(S(=O)(=O)O)cc2S(=O)(=O)O)cc(C(=O)Nc2ccc(S(=O)(=O)O)cc2S(=O)(=O)O)c1` [NF449], the IC50 entry on rat His-Gαi3 [2] (displacement of fluorescein-GIV 1671-1701 peptide (25 nM), GDP 30 µM, 10 mM MgCl2, pH 7.4, room temperature) is reported as “NF449 inhibits Gαi3-GIV binding with a potency similar to that of NF023”.

Regarding `Cc1ccc(C(=O)Nc2ccc(S(=O)(=O)O)c3cc(S(=O)(=O)O)cc(S(=O)(=O)O)c23)cc1NC(=O)c1cccc(NC(=O)Nc2cccc(C(=O)Nc3cc(C(=O)Nc4ccc(S(=O)(=O)O)c5cc(S(=O)(=O)O)cc(S(=O)(=O)O)c45)ccc3C)c2)c1` [suramin], on rat His-Gαi3 [2] (read-out: IC50), the IC50 is roughly 50 µM. Besides, the “AlphaScreen protein-protein binding inhibition” value on rat GST-Gαi3 [3] is “suramin is a less potent inhibitor than NF023 in the same AlphaScreen”.

B1: fluorescein-labeled GIV 1671–1696 peptide (peptide)
peptide: {5,6‑carboxyfluorescein}-KTGSPGSEVVTLQQFLEESNKLTSVQ-NH2
notes: Made on MBHA resin, which would leave a C-terminal amide; source: synthetic peptide (Boc-SPPS, RP-HPLC purified)
The term Kd denotes the constant that tells how readily two partners part at equilibrium. Higher therefore signals lower affinity. In turn, B1 showed a Kd with rat His-Gαi3 [4] of roughly 0.65 µM.

B2: fluorescein-labeled GIV 1671–1705 peptide (peptide)
peptide: {5,6‑carboxyfluorescein}-KTGSPGSEVVTLQQFLEESNKLTSVQIKSSSQENL
notes: Made on MBHA resin, which would leave a C-terminal amide; also called fluorescently-labeled GIV peptide; source: synthetic peptide (Boc-SPPS, RP-HPLC purified)
On to B2, for which the Kd in the test with rat His-Gαi3 [5] was 0.56 µM; with rat His-Gαi3 [4] it was roughly 0.5 µM.

B3: GST-GIV 1671–1696 (domain or fragment, human)
chain: KTGSPGSEVVTLQQFLEESNKLTSVQ
notes: source: purified
Regarding B3, in the test with rat His-Gαi3 [6], the binding result is “binds”.

B4: GST-GIV 1671–1689 (domain or fragment, human)
chain: KTGSPGSEVVTLQQFLEES
notes: source: purified
For B4, the binding result with rat His-Gαi3 [6] is given as “binds”.

B5: GST-GIV 1671–1755 (domain or fragment, human, UniProt Q3V6T2-3 1671-1755, looked up)
chain: KTGSPGSEVVTLQQFLEESNKLTSVQIKSSSQENLLDEVMKSLSVSSDFLGKDKPVSCGLARSVSGKTPGDFYDRRTTKPEFLRP
notes: source: E. coli BL21(DE3), purified (Glutathione Agarose)
In the case of B5, the binding result with rat His-Gαi3 [6] was “binds”.

B6: fluorescein-labeled GIV 1671–1689 peptide (peptide)
peptide: {5,6‑carboxyfluorescein}-KTGSPGSEVVTLQQFLEES-NH2
notes: as for B1
Turning to B6, in the test with rat His-Gαi3 [4], the Kd was roughly 1 µM. Consider B7, for which the binding result with rat GST-Gαi3 [7] and with rat His-Gαi3 [8] was “binds” in each case.

B8: fluorescently-labeled GIV 1671–1701 peptide (peptide)
peptide: {5,6‑carboxyfluorescein}-KTGSPGSEVVTLQQFLEESNKLTSVQIKSSS
notes: as for B1
In the case of B8, in the test with rat His-Gαi3 [5], the Kd is 0.46 µM. For the same molecule, the binding result in the test with rat His-Gαi3 [8] is given as “binds”.

B9: GST-GIV 1671–1705 (domain or fragment, human)
chain: KTGSPGSEVVTLQQFLEESNKLTSVQIKSSSQENL
notes: limits not spelled out in the text for this one; also called GST-fused GIV truncation construct of 35 amino acids; source: purified
On to B9, for which the binding result in the test with rat His-Gαi3 [6] is on record as “binds”.

B10: unlabeled GIV 1671–1701 peptide (peptide)
peptide: KTGSPGSEVVTLQQFLEESNKLTSVQIKSSS
notes: as for B1
B10: in the test with rat His-Gαi3 [8], the binding result is on record as “binds”.

B11: GST-fused GIV 1671–1701 (domain or fragment, human)
chain: KTGSPGSEVVTLQQFLEESNKLTSVQIKSSS
notes: source: purified
Turning to B11, the binding result with rat His-Gαi3 [6] is recorded as “binds”.

B12: untagged rat Gαi3 (natural protein, UniProt P08753 1-354, looked up)
chain: MGCTLSAEDKAAVERSKMIDRNLREDGEKAAKEVKLLLLGAGESGKSTIVKQMKIIHEDGYSEDECKQYKVVVYSNTIQSIIAIIRAMGRLKIDFGEAARADDARQLFVLAGSAEEGVMTSELAGVIKRLWRDGGVQACFSRSREYQLNDSASYYLNDLDRISQTNYIPTQQDVLRTRVKTTGIVETHFTFKELYFKMFDVGGQRSERKKWIHCFEGVTAIIFCVALSDYDLVLAEDEEMNRMHESMKLFDSICNNKWFTDTSIILFLNKKDLFEEKIKRSPLTICYPEYTGSNTYEEAAAYIQCQFEDLNRRKDTKEVYTHFTCATDTKNVQFVFDAVTDVIIKNNLKECGLY
notes: from a pET28b plasmid containing a thrombin cleavage site; also called untagged Gαi3; unlabeled Gαi3; source: E. coli BL21(DE3); rat His-Gαi3 cleaved with agarose-immobilized thrombin, passed over HisPur Cobalt beads, gel filtration (Superdex S200)
On to B12, for which the IC50 in test [9] is roughly 1 µM.

Values taken from publication PMC5561080, “The Gαi-GIV binding interface is a druggable protein-protein interaction” (Scientific Reports, 2017).
